Twelve variants from IntAct's records for PubMed 31515488 can be followed below.

B1: Leucine rich adaptor protein 1 (Homo sapiens), Q96LR2 (parent)
chain: MEGTVESQTPDLRDVEGKVGRKTPEGLLRGLRGECELGTSGALLLPGASSTGHDLGDKIMALKMELAYLRAIDVKILQQLVTLNEGIEAVRWLLEERGTLTSHCSSLTSSQYSLTGGSPGRSRRGSWDSLPDTSTTDRLDSVSIGSFLDTVAPSELDEQGPPGAPRSEMDWAKVIAGGERARTEVDVAATRLGSLRAVWKPPGERLQGGPPESPEDESAKLGFEAHWFWEQCQDDVTFL
partner: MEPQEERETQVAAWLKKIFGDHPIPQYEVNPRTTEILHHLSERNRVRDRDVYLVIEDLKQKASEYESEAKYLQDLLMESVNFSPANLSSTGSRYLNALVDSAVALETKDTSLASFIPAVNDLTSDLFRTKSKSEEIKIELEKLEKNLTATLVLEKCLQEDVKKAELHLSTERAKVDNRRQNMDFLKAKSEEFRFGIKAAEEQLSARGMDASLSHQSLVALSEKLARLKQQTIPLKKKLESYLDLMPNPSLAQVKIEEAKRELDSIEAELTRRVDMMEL
B2: Retinoic acid receptor RXR-gamma (Homo sapiens), P48443 (parent)
chain: MYGNYSHFMKFPAGYGGSPGHTGSTSMSPSAALSTGKPMDSHPSYTDTPVSAPRTLSAVGTPLNALGSPYRVITSAMGPPSGALAAPPGINLVAPPSSQLNVVNSVSSSEDIKPLPGLPGIGNMNYPSTSPGSLVKHICAICGDRSSGKHYGVYSCEGCKGFFKRTIRKDLIYTCRDNKDCLIDKRQRNRCQYCRYQKCLVMGMKREAVQEERQRSRERAESEAECATSGHEDMPVERILEAELAVEPKTESYGDMNMENSTNDPVTNICHAADKQLFTLVEWAKRIPHFSDLTLEDQVILLRAGWNELLIASFSHRSVSVQDGILLATGLHVHRSSAHSAGVGSIFDRVLTELVSKMKDMQMDKSELGCLRAIVLFNPDAKGLSNPSEVETLREKVYATLEAYTKQKYPEQPGRFAKLLLRLPALRSIGLKCLEHLFFFKLIGDTPIDTFLMEMLETPLQIT
partner: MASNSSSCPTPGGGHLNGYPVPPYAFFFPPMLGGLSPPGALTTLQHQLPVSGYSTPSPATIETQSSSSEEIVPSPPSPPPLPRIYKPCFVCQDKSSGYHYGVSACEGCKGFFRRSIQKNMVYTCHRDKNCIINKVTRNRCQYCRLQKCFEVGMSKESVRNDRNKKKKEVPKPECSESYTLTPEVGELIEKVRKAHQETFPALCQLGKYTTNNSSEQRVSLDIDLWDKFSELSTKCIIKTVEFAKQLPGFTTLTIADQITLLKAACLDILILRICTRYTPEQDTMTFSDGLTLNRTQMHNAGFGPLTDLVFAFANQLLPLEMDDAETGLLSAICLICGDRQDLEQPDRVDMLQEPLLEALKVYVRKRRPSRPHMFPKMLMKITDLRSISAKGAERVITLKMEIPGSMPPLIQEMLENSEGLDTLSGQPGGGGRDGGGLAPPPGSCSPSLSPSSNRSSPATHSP
B3: Proteasome subunit beta type-1 (Homo sapiens), P20618 (parent)
chain: MLSSTAMYSAPGRDLGMEPHRAAGPLQLRFSPYVFNGGTILAIAGEDFAIVASDTRLSEGFSIHTRDSPKCYKLTDKTVIGCSGFHGDCLTLTKIIEARLKMYKHSNNKAMTTGAIAAMLSTILYSRRFFPYYVYNIIGGLDEEGKGAVYSFDPVGSYQRDSFKAGGSASAMLQPLLDNQVGFKNMQNVEHVPLSLDRAMRLVKDVFISAAERDVYTGDALRICIVTKEGIREETVSLRKD
partner: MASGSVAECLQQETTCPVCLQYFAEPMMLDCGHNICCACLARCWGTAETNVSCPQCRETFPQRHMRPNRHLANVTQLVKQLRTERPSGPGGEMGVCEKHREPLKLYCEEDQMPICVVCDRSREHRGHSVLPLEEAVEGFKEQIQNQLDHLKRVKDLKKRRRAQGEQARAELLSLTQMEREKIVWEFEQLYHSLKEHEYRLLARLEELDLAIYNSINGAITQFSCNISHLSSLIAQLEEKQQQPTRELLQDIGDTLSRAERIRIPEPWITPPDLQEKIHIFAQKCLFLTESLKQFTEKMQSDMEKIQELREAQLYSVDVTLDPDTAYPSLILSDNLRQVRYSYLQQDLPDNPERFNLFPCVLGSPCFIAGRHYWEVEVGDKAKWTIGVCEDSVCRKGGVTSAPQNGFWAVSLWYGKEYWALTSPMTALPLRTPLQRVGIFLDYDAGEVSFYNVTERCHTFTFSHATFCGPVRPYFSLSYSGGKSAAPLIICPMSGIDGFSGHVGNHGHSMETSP
B4: KH domain-containing, RNA-binding, signal transduction-associated protein 2 (Homo sapiens), Q5VWX1 (parent)
chain: MEEEKYLPELMAEKDSLDPSFVHASRLLAEEIEKFQGSDGKKEDEEKKYLDVISNKNIKLSERVLIPVKQYPKFNFVGKLLGPRGNSLKRLQEETGAKMSILGKGSMRDKAKEEELRKSGEAKYAHLSDELHVLIEVFAPPGEAYSRMSHALEEIKKFLVPDYNDEIRQEQLRELSYLNGSEDSGRGRGIRGRGIRIAPTAPSRGRGGAIPPPPPPGRGVLTPRGSTVTRGALPVPPVARGVPTPRARGAPTVPGYRAPPPPAHEAYEEYGYDDGYGGEYDDQTYETYDNSYATQTQSVPEYYDYGHGVSEDAYDSYAPEEWATTRSSLKAPPQRSARGGYREHPYGRY
partner: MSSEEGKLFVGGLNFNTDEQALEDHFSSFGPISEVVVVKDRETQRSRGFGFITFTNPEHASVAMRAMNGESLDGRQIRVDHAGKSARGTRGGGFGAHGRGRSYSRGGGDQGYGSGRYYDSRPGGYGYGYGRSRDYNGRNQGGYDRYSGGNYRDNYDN
B5: Golgin-45 (Homo sapiens), Q9H2G9 (parent)
chain: MTTKNLETKVTVTSSPIRGAGDGMETEEPPKSVEVTSGVQSRKHHSLQSPWKKAVPSESPGVLQLGKMLTEKAMEVKAVRILVPKAAITHDIPNKNTKVKSLGHHKGEFLGQSEGVIEPNKELSEVKNVLEKLKNSERRLLQDKEGLSNQLRVQTEVNRELKKLLVASVGDDLQYHFERLAREKNQLILENEALGRNTAQLSEQLERMSIQCDVWRSKFLASRVMADELTNSRAALQRQNRDAHGAIQDLLSEREQFRQEMIATQKLLEELLVSLQWGREQTYSPSVQPHSTAELALTNHKLAKAVNSHLLGNVGINNQKKIPSTVEFCSTPAEKMAETVLRILDPVTCKESSPDNPFFESSPTTLLATKKNIGRFHPYTRYENITFNCCNHCRGELIAL
partner: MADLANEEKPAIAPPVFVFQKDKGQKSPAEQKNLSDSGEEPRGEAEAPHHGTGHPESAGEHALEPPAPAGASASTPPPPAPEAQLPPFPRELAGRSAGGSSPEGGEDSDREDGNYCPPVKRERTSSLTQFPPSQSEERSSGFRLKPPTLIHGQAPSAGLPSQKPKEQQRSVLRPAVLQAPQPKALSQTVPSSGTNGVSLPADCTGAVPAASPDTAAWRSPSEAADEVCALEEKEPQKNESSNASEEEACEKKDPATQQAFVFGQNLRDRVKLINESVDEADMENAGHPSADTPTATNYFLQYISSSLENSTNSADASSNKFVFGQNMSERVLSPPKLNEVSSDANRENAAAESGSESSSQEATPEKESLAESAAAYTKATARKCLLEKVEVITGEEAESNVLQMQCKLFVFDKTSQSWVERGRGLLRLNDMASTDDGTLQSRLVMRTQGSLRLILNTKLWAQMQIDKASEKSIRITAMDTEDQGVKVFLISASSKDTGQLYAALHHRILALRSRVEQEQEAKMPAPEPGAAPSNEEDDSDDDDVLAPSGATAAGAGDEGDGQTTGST
B6: Calcium-binding and coiled-coil domain-containing protein 2 (Homo sapiens), Q13137 (parent)
chain: MEETIKDPPTSAVLLDHCHFSQVIFNSVEKFYIPGGDVTCHYTFTQHFIPRRKDWIGIFRVGWKTTREYYTFMWVTLPIDLNNKSAKQQEVQFKAYYLPKDDEYYQFCYVDEDGVVRGASIPFQFRPENEEDILVVTTQGEVEEIEQHNKELCKENQELKDSCISLQKQNSDMQAELQKKQEELETLQSINKKLELKVKEQKDYWETELLQLKEQNQKMSSENEKMGIRVDQLQAQLSTQEKEMEKLVQGDQDKTEQLEQLKKENDHLFLSLTEQRKDQKKLEQTVEQMKQNETTAMKKQQELMDENFDLSKRLSENEIICNALQRQKERLEGENDLLKRENSRLLSYMGLDFNSLPYQVPTSDEGGARQNPGLAYGNPYSGIQESSSPSPLSIKKCPICKADDICDHTLEQQQMQPLCFNCPICDKIFPATEKQIFEDHVFCHSL
partner: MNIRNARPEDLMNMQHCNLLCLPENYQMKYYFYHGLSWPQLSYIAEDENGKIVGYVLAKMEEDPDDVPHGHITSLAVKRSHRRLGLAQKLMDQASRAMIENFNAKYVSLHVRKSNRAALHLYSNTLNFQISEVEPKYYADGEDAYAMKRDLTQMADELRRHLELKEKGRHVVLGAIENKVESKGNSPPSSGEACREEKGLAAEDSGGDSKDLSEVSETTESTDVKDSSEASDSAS
B7: Protein-lysine N-methyltransferase EEF2KMT (Homo sapiens), Q96G04 (parent)
chain: MAPEENAGTELLLQSFERRFLAARTLRSFPWQSLEAKLRDSSDSELLRDILHKTVKHPVCVKHPPSVKYARCFLSELIKKHEAVHTEPLDELYEALAETLMAKESTQGHRSYLLPSGGSVTLSESTAIISYGTTGLVTWDAALYLAEWAIENPAVFTNRTVLELGSGAGLTGLAICKMCRPRAYIFSDCHSRVLEQLRGNVLLNGLSLEADITAKLDSPRVTVAQLDWDVATVHQLSAFQPDVVIAADVLYCPEAIMSLVGVLRRLAACREHQRAPEVYVAFTVRNPETCQLFTTELGRAGIRWEVEPRHEQKLFPYEEHLEMAMLNLTL
B8: Ribosome quality control complex subunit TCF25 (Homo sapiens), Q9BQ70 (parent)
chain: MSRRALRRLRGEQRGQEPLGPGALHFDLRDDDDAEEEGPKRELGVRRPGGAGKEGVRVNNRFELINIDDLEDDPVVNGERSGCALTDAVAPGNKGRGQRGNTESKTDGDDTETVPSEQSHASGKLRKKKKKQKNKKSSTGEASENGLEDIDRILERIEDSTGLNRPGPAPLSSRKHVLYVEHRHLNPDTELKRYFGARAILGEQRPRQRQRVYPKCTWLTTPKSTWPRYSKPGLSMRLLESKKGLSFFAFEHSEEYQQAQHKFLVAVESMEPNNIVVLLQTSPYHVDSLLQLSDACRFQEDQEMARDLVERALYSMECAFHPLFSLTSGACRLDYRRPENRSFYLALYKQMSFLEKRGCPRTALEYCKLILSLEPDEDPLCMLLLIDHLALRARNYEYLIRLFQEWEAHRNLSQLPNFAFSVPLAYFLLSQQTDLPECEQSSARQKASLLIQQALTMFPGVLLPLLESCSVRPDASVSSHRFFGPNAEISQPPALSQLVNLYLGRSHFLWKEPATMSWLEENVHEVLQAVDAGDPAVEACENRRKVLYQRAPRNIHRHVILSEIKEAVAALPPDVTTQSVMGFDPLPPSDTIYSYVRPERLSPISHGNTIALFFRSLLPNYTMEGERPEEGVAGGLNRNQGLNRLMLAVRDMMANFHLNDLEAPHEDDAEGEGEWD
partner: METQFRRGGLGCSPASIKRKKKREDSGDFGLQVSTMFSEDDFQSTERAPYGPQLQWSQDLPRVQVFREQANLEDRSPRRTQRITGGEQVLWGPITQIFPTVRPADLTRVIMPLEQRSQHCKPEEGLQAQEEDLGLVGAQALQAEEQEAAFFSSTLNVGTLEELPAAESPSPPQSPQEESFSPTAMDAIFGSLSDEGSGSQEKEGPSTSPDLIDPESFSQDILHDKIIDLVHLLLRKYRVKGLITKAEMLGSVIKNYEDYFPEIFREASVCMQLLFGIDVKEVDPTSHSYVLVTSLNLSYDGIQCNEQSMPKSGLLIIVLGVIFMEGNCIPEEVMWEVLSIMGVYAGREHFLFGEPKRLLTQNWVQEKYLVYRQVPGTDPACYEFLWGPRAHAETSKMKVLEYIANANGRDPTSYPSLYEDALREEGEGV

One experiment covers variants of B1. The note with it: with haus1_human HAUS1, Q96CS2.
On to M60L, for which the “effect of a mutation on the interaction” value is given as “with no effect”. Same read-out and setting: the value for Q207R was “with no effect”.

The variants in a further experiment derive from B2. To be noted: with rara_human RARA.
Take A86V: the “effect of a mutation on the interaction” value was “with no effect”.

A further experiment covers variants of B3. The note with it: with tri27_human TRIM27, P14373.
As for P11A, the “effect of a mutation on the interaction” value is recorded as “with no effect”.

A further experiment covers variants of B4. To be noted: with rbm3_human RBM3, P98179.
In the case of P333L, the “effect of a mutation on the interaction” value was “with no effect”.

The next experiment covers variants of B5. To be noted: with ranb3_human RANBP3, Q9H6Z4.
With Q40R, the “effect of a mutation on the interaction” value is listed as “with no effect”. Turning to H45R, the “effect of a mutation on the interaction” value was “with no effect”.

In another experiment the parent is B6. To be noted: with naa10_human NAA10, P41227.
On to P389A, for which the “effect of a mutation on the interaction” value is “with no effect”. The same measure, in the same setting: the value for T273A was “with no effect”; that for E222K was “with no effect”.

Variants of B7 are the subject of a further experiment. To be noted: with prdc1_human PRTFDC1, Q9NRG1.
Chain of prdc1_human PRTFDC1, Q9NRG1 (Q9NRG1 whole entry): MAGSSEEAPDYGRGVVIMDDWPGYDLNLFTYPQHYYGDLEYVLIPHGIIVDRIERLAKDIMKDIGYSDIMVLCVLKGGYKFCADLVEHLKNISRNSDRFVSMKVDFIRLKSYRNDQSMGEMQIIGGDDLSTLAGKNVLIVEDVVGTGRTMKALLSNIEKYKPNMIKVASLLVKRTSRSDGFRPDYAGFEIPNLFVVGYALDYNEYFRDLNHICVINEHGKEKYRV
As for S123C, the “effect of a mutation on the interaction” value was “with no effect”.

The variants in a further experiment derive from B8. The note with it: with magab_human MAGEA11, P43364.
Turning to V526A, the “effect of a mutation on the interaction” value is “with no effect”.
